Results published in the supplement of paper PMC9112550, “Optimization of the antimicrobial peptide Bac7 by deep mutational scanning” (BMC Biology, 2022).

Test system: Escherichia coli TOP10
Experiment: shrunken log2 fold change of peptide-encoding DNA abundance (4.5 h post-induction vs induction); higher = less antimicrobial activity (less host growth inhibition)
Settings: time post-induction: 4.5 h; library: site-saturation at positions 5, 18, 19, 20
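Note: peptides expressed intracellularly from a pBAD plasmid library in pooled LB shake-flask culture, induced with 0.3% L-arabinose, DNA abundance read by NGS, three biological replicates, DESeq2 with apeglm shrinkage.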

Sequence | shrunken log2 fold change
RRIRNRPPRLPRPRPRPQCFPRP | 0.242
RRIRNRPPRLPRPRPRPQCNPRP | -0.468
RRIRNRPPRLPRPRPRPQDNPRP | 0.0553
RRIRNRPPRLPRPRPRPQENPRP | -0.151
RRIRNRPPRLPRPRPRPQFFPRP | -0.0257
RRIRNRPPRLPRPRPRPQHCPRP | -0.065
RRIRNRPPRLPRPRPRPQHSPRP | -0.428
RRIRNRPPRLPRPRPRPQKNPRP | -0.318
RRIRNRPPRLPRPRPRPQLIPRP | -0.0323
RRIRNRPPRLPRPRPRPQLKPRP | -0.0663
RRIRNRPPRLPRPRPRPQLRPRP | 0.0493
RRIRNRPPRLPRPRPRPQMAPRP | -0.23
RRIRNRPPRLPRPRPRPQNNPRP | -0.734
RRIRNRPPRLPRPRPRPQNRPRP | -0.184
RRIRNRPPRLPRPRPRPQNTPRP | -0.589
RRIRNRPPRLPRPRPRPQNWPRP | -0.146
RRIRNRPPRLPRPRPRPQPQPRP | -0.0877
RRIRNRPPRLPRPRPRPQQLPRP | -0.0538
RRIRNRPPRLPRPRPRPQRAPRP | 0.0993
RRIRNRPPRLPRPRPRPQRGPRP | 0.237
RRIRNRPPRLPRPRPRPQSQPRP | -0.7
RRIRNRPPRLPRPRPRPQTCPRP | 0.0139
RRIRNRPPRLPRPRPRPQTFPRP | -0.0594
RRIRNRPPRLPRPRPRPQTKPRP | 0.173
RRIRNRPPRLPRPRPRPQTMPRP | -0.238

Sequence | shrunken log2 fold change
RRIRNRPPRLPRPRPRPQYTPRP | -0.737
RRIRNRPPRLPRPRPRPRDEPRP | -0.0923
RRIRNRPPRLPRPRPRPRFKPRP | 0.0387
RRIRNRPPRLPRPRPRPRFMPRP | -0.098
RRIRNRPPRLPRPRPRPRFPPRP | -0.365
RRIRNRPPRLPRPRPRPRGAPRP | 0.601
RRIRNRPPRLPRPRPRPRHKPRP | -0.369
RRIRNRPPRLPRPRPRPRHPPRP | 0.136
RRIRNRPPRLPRPRPRPRHTPRP | -0.096
RRIRNRPPRLPRPRPRPRHVPRP | -0.119
RRIRNRPPRLPRPRPRPRICPRP | 0.101
RRIRNRPPRLPRPRPRPRIKPRP | 0.0822
RRIRNRPPRLPRPRPRPRKCPRP | -0.0149
RRIRNRPPRLPRPRPRPRPAPRP | 0.313
RRIRNRPPRLPRPRPRPRPEPRP | 0.295
RRIRNRPPRLPRPRPRPRQHPRP | -0.103
RRIRNRPPRLPRPRPRPRSQPRP | -0.0986
RRIRNRPPRLPRPRPRPRTGPRP | -0.0238
RRIRNRPPRLPRPRPRPRVSPRP | 0.0988
RRIRNRPPRLPRPRPRPRWIPRP | 0.0158
RRIRNRPPRLPRPRPRPRWVPRP | -0.172
RRIRNRPPRLPRPRPRPSCFPRP | -0.398
RRIRNRPPRLPRPRPRPSCMPRP | -0.755
RRIRNRPPRLPRPRPRPSDVPRP | -1.29
RRIRNRPPRLPRPRPRPSEAPRP | 0.00843

Sequence | shrunken log2 fold change
RRIRNRPPRLPRPRPRPSFIPRP | -0.934
RRIRNRPPRLPRPRPRPSFWPRP | -0.056
RRIRNRPPRLPRPRPRPSGGPRP | 0.0638
RRIRNRPPRLPRPRPRPSGLPRP | 0.0284
RRIRNRPPRLPRPRPRPSGNPRP | -0.315
RRIRNRPPRLPRPRPRPSHEPRP | 0.00187
RRIRNRPPRLPRPRPRPSHGPRP | 0.108
RRIRNRPPRLPRPRPRPSHRPRP | 0.0906
RRIRNRPPRLPRPRPRPSIQPRP | -0.623
RRIRNRPPRLPRPRPRPSISPRP | -0.256
RRIRNRPPRLPRPRPRPSIYPRP | -0.449
RRIRNRPPRLPRPRPRPSKHPRP | -0.545
RRIRNRPPRLPRPRPRPSKKPRP | -0.0392
RRIRNRPPRLPRPRPRPSKRPRP | -0.0331
RRIRNRPPRLPRPRPRPSLPPRP | -0.378
RRIRNRPPRLPRPRPRPSLSPRP | -0.205
RRIRNRPPRLPRPRPRPSNEPRP | -0.717
RRIRNRPPRLPRPRPRPSNIPRP | -0.28
RRIRNRPPRLPRPRPRPSNPPRP | 0.0568
RRIRNRPPRLPRPRPRPSNTPRP | -0.446
RRIRNRPPRLPRPRPRPSPLPRP | -0.334
RRIRNRPPRLPRPRPRPSQSPRP | -0.169
RRIRNRPPRLPRPRPRPSREPRP | -0.103
RRIRNRPPRLPRPRPRPSRVPRP | 0.0304
RRIRNRPPRLPRPRPRPSTWPRP | -0.332

Sequence | shrunken log2 fold change
RRIRNRPPRLPRPRPRPSVEPRP | -0.254
RRIRNRPPRLPRPRPRPSWTPRP | -0.211
RRIRNRPPRLPRPRPRPSWWPRP | 0.28
RRIRNRPPRLPRPRPRPTAEPRP | -0.0644
RRIRNRPPRLPRPRPRPTARPRP | 0.198
RRIRNRPPRLPRPRPRPTCYPRP | -0.226
RRIRNRPPRLPRPRPRPTDNPRP | -0.353
RRIRNRPPRLPRPRPRPTEFPRP | -0.043
RRIRNRPPRLPRPRPRPTEMPRP | -0.283
RRIRNRPPRLPRPRPRPTEVPRP | -0.268
RRIRNRPPRLPRPRPRPTFCPRP | -0.379
RRIRNRPPRLPRPRPRPTFLPRP | -0.272
RRIRNRPPRLPRPRPRPTFQPRP | 0.0675
RRIRNRPPRLPRPRPRPTGRPRP | 0.0525
RRIRNRPPRLPRPRPRPTGTPRP | 0.0526
RRIRNRPPRLPRPRPRPTHEPRP | 0.0695
RRIRNRPPRLPRPRPRPTHPPRP | -0.235
RRIRNRPPRLPRPRPRPTHSPRP | -0.232
RRIRNRPPRLPRPRPRPTIHPRP | -0.46
RRIRNRPPRLPRPRPRPTINPRP | -0.515
RRIRNRPPRLPRPRPRPTKQPRP | -0.102
RRIRNRPPRLPRPRPRPTMDPRP | -0.266
RRIRNRPPRLPRPRPRPTMEPRP | 0.274
RRIRNRPPRLPRPRPRPTMVPRP | -0.0433
RRIRNRPPRLPRPRPRPTNAPRP | -0.182

Sequence | shrunken log2 fold change
RRIRNRPPRLPRPRPRPTNCPRP | 0.143
RRIRNRPPRLPRPRPRPTPDPRP | 0.17
RRIRNRPPRLPRPRPRPTPYPRP | -0.243
RRIRNRPPRLPRPRPRPTQTPRP | -0.0444
RRIRNRPPRLPRPRPRPTTNPRP | 0.365
RRIRNRPPRLPRPRPRPTTRPRP | 0.0475
RRIRNRPPRLPRPRPRPTVNPRP | -0.382
RRIRNRPPRLPRPRPRPTVTPRP | 0.354
RRIRNRPPRLPRPRPRPTWWPRP | 0.326
RRIRNRPPRLPRPRPRPTYMPRP | -0.596
RRIRNRPPRLPRPRPRPTYRPRP | -0.0805
RRIRNRPPRLPRPRPRPVEPPRP | 0.173
RRIRNRPPRLPRPRPRPVFGPRP | 0.106
RRIRNRPPRLPRPRPRPVFWPRP | 0.219
RRIRNRPPRLPRPRPRPVGAPRP | 0.0749
RRIRNRPPRLPRPRPRPVGFPRP | 0.165
RRIRNRPPRLPRPRPRPVGIPRP | -0.2
RRIRNRPPRLPRPRPRPVGSPRP | 0.0409
RRIRNRPPRLPRPRPRPVIRPRP | -0.164
RRIRNRPPRLPRPRPRPVKQPRP | 0.00788
RRIRNRPPRLPRPRPRPVLCPRP | 0.0343
RRIRNRPPRLPRPRPRPVLGPRP | 0.00359
RRIRNRPPRLPRPRPRPVNCPRP | -0.147
RRIRNRPPRLPRPRPRPVPGPRP | 0.176
RRIRNRPPRLPRPRPRPVRLPRP | 0.0814

Sequence | shrunken log2 fold change
RRIRNRPPRLPRPRPRPVSCPRP | -0.129
RRIRNRPPRLPRPRPRPVVRPRP | 0.12
RRIRNRPPRLPRPRPRPVVSPRP | -0.153
RRIRNRPPRLPRPRPRPVWVPRP | 0.0909
RRIRNRPPRLPRPRPRPVYMPRP | -0.0311
RRIRNRPPRLPRPRPRPVYRPRP | -0.815
RRIRNRPPRLPRPRPRPWAMPRP | -0.175
RRIRNRPPRLPRPRPRPWCLPRP | -0.472
RRIRNRPPRLPRPRPRPWCQPRP | -0.0618
RRIRNRPPRLPRPRPRPWCWPRP | -0.0119
RRIRNRPPRLPRPRPRPWECPRP | -0.00145
RRIRNRPPRLPRPRPRPWGFPRP | -0.103
RRIRNRPPRLPRPRPRPWITPRP | -0.0261
RRIRNRPPRLPRPRPRPWMQPRP | -0.218
RRIRNRPPRLPRPRPRPWNQPRP | -0.0135
RRIRNRPPRLPRPRPRPWNTPRP | 0.0705
RRIRNRPPRLPRPRPRPWPIPRP | -0.0597
RRIRNRPPRLPRPRPRPWPTPRP | 0.216
RRIRNRPPRLPRPRPRPWQSPRP | -0.0702
RRIRNRPPRLPRPRPRPWRAPRP | 0.0962
RRIRNRPPRLPRPRPRPWRTPRP | -0.323
RRIRNRPPRLPRPRPRPWSEPRP | 0.0632
RRIRNRPPRLPRPRPRPWSVPRP | -0.328
RRIRNRPPRLPRPRPRPWTSPRP | 0.0238
RRIRNRPPRLPRPRPRPWVCPRP | 0.037
